# Laboratory results as given in publication doi:10.1101/098400 (bioRxiv, 2017).
# Biological target: the molecule itself
# Assay: in vitro assembly seen by negative-stain transmission electron microscopy
protein,measurement,value
"Rous Sarcoma Virus capsid protein (RSV CA), wild type (natural protein, Rous Sarcoma Virus (strain Prague C), UniProt P03322 240-476, looked up) PVVIKTEGPAWTPLEPKLITRLADTVRTKGLRSPITMAEVEALMSSPLLPHDVTNLMRVILGPAPYALWMDAWGVQLQTVIAAATRDPRHPANGQGRGERTNLNRLKGLADGMVGNPQGQAALLRPGELVAITASALQAFREVARLAEPAGPWADIMQGPSESFVDFANRLIKAVEGSDLPPSARAPVIIDCFRQKSQPDIQQLIRTAPSTLTTPGEIIKYVLDRQKTAPLTDQGIA",stoichiometry N,6
